The supplement of paper PMC12636428

Tested on: Saccharomyces cerevisiae
Experiment: transcriptional activation domain activity (GFP:mCherry ratio, weighted mean of sorted bins, harmonized to initial dataset scale) (arbitrary fluorescence ratio units); higher = stronger transcriptional activation
Settings: beta-estradiol 1 µM; induction time 4 h
In short: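 Values are activation activity, found as the read-weighted mean of bin median fluorescence, averaged across barcodes and then mapped linearly onto the initial dataset scale. Barcoded protein tiles fused to an estradiol-inducible synthetic transcription factor were integrated at the URA3 locus of GFP-reporter yeast diploids. Cells were induced for 4 hours at 30 °C with 1 uM beta-estradiol in SC, sorted into 8 bins by GFP:mCherry ratio, and barcode-sequenced, with tiles under 50 reads discarded.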

| Sequence | transcriptional activation domain activity |
| --- | --- |
| SRLTHVLLCYRQSLLVTVYSHLLLLDQSSQVWWRWMSIFFTLIMWSIELLISS | 57600 |
| AAQAPANDGFSEVQHNRGGRGRGGQDQGEGRGGYRGRGRGGRGGGEFRGRGRG | 55800 |
| LSHSFFSSCCCLLRTLGRFLLFIIFFLSFYFFIFTFFFFFSFQTYLLLYLLLI | 31400 |
| GSRRPRKDKSHKKKDRSSGDGTEKERKHRDRGDKGDRERAKSRERGEKGKRDR | 20500 |
| DEGESAAPADSAAQAQHLDATKKGHYKLSSFISHKGPSVHCGHYVSHIKKGDQ | 51800 |
| TPSSTATTAAPAATSAATPSLFSKPATTSAAPATATAAASTPSGNLFGAKAAA | 47500 |
| KAGCGYILGHINIFQPINWIFVVSAKVFPVDYVLFLLLVFFLFSASVVGVATV | 32300 |
| ILSPTLFLLFSSSPLPLLFYPHFPFLVLTSYFLLLLYSSVSLFIAFLHSLFLI | 41300 |
| NTDTYILFLFPFFWASNWFYTYQQNCYQLFYFNLRGRTFTNLWYWLAQIFGAL | 72900 |
| FVEKGRERERGKGRRGGGGGAGEEQREGGGGGRGGGRGKTVVVVVRDVASSGD | 25100 |
| EQAEKEAAAEKATPKEAAAKEESPKEESPKEESPEKKEVKKPVKKTPTKKNAK | 27100 |
| VEAGDGDGAPPKSAKRPRKKKEPVEEGDGDAAAPKPAKRPRKKKVDVTEAQKE | 48100 |
| AAERRQQGHRAKENEKRRQEEARRGRKERGAGGGKAKAGRKPAGQPRRRRSRE | 32900 |
| KGRDEEDFPLDYFPVSVEYPTEENAFDPFPPQAFTPAAPSMPISYDNVNERDS | 33400 |
| SGSSKPRRAEDGRKSSRRDHSREREGSNGGHHRSRSGRDGSASPKRSSSSRRR | 16800 |
| LEDNAAPASAPAAEEKPVEKAPEEKPEKKEEPQKEEPKKEDAKQAAPKSGASQ | 46100 |
| RREERRGEDGHRHRRTRRYSEDEDEEGERRSRGKERGGEERREKRREERRDAG | 16800 |

| Sequence | transcriptional activation domain activity |
| --- | --- |
| CTVVFLACTVVYGFMVVTSLLFHLSGFLFHVTTTFPFFFFFFFTLLFFLLHTF | 38000 |
| EEDNHSGDDNEDDHDSSGVDDDHGGGGDEDDGDGGEGDGGDVMQLYFIHNIIL | 37400 |
| SNPKELFFIRILLDLSWIDMRVAICSLRPILGEEPRKFREMLLVLPTLCSEIY | 66100 |
| RIVIPIRLVLLVFVTMASYLLFAMIIYACQNEWLYPFLSWDQGPVAVLWYLLL | 42800 |
| AHVTMPYLLAIACHTAGIICMWICYCACLVWCSTVLPILLIIIIILIVFLNAN | 25200 |
| MAAIDHDKVAKFVGGNSLDKATPGDVTDFVRKNGGHTVITKVLIANNGIAAVK | 45000 |
| PIYNLHFAPSNEYWFSFSYLPGQGQCTLDSSTTSIGQTRYFIWSLSLWRRIFL | 70200 |
| PVVAPKQPRRRAVAGERYERLAQVGEGTYGKVYKARNTGSGALVALKRIRMEQ | 68200 |
| TLAGMIRENDEEQKSRGITRIKELEIKCLIEGAYGINRPMHLFETAVVIAGGV | 54500 |
| RAAVTLCSFFCFFFSWTYSSLFLLSFFIWTGFGRSYGVFFFFFFFFFFFFGGF | 19400 |
| AKVWKFHFHGSYTKISVHVINMIYCTMRGHEIPSLHIFKCDRLLTLSVLLGYI | 58200 |
| EGEKKDQESDEKESNEEKKDDVEKLTKEMDKVTIKGEKKILGKSKGFGFVCFS | 7730 |
| LSQNYLLTWDDSGDWLSLADAGVIAALLFRNNLSETWLDEFASWCRLLWYLRQ | 58600 |
| AAAPRAKNAPRGKKQTAAKTAPEPEPEPEAEPAPAPKPRGRQKKTVKASAPEV | 20800 |
| YTRVVTRFKRLFVSSRGYTAFIPALFKVFCDVEHLAPIRSAIVFAWCRFYAVH | 67300 |
| MEFGSWGWKSIFFIFFSFRDFMVWHGGVSFFLPYINDFYIFVLIFYCFIYSAS | 59800 |
| RCLVLFLWALDTIHFAFTSHGLYFYLVTSFGDFAVLLSPTWTILAQVYVTNLS | 50100 |
